Measured values reported in PMC10397247.
Values belong to the binder of their own block, whether it stands above or below them.

Key:
4H1544-bN = molecular target: T1, 4H1544-bN; assay: two-hybrid library CCNG1;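 note: natural log of median RNA to DNA barcode read ratio; higher means stronger binding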
T1 chain: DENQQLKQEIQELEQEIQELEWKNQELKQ

4H1710-bN = molecular target: T2, 4H1710-bN; assay: two-hybrid library CCNG1;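 note: natural log of median RNA to DNA barcode read ratio; higher means stronger binding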
T2 chain: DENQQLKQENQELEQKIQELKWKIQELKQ

4H1899-bN = molecular target: T3, 4H1899-bN; assay: two-hybrid library CCNG1;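 note: natural log of median RNA to DNA barcode read ratio; higher means stronger binding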
T3 chain: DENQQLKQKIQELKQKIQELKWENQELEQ

4H1985-bN = molecular target: T4, 4H1985-bN; assay: two-hybrid library CCNG1;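 note: natural log of median RNA to DNA barcode read ratio; higher means stronger binding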
T4 chain: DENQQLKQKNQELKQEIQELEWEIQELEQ

4H3162-bN = molecular target: T5, 4H3162-bN; assay: two-hybrid library CCNG1;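 note: natural log of median RNA to DNA barcode read ratio; higher means stronger binding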
T5 chain: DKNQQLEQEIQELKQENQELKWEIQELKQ

4H3175-bN = molecular target: T6, 4H3175-bN; assay: two-hybrid library CCNG1;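 note: natural log of median RNA to DNA barcode read ratio; higher means stronger binding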
T6 chain: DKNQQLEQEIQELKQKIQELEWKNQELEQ

4H3277-bN = molecular target: T7, 4H3277-bN; assay: two-hybrid library CCNG1
T7 chain: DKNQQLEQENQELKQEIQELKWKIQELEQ

4H3298-bN = molecular target: T8, 4H3298-bN; assay: two-hybrid library CCNG1
T8 chain: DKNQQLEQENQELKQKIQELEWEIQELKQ

4H3462-bN = molecular target: T9, 4H3462-bN; assay: two-hybrid library CCNG1
T9 chain: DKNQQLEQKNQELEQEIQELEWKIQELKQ

4H3497-bN = molecular target: T10, 4H3497-bN; assay: two-hybrid library CCNG1
T10 chain: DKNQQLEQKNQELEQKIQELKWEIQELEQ

4H3613-bN = molecular target: T11, 4H3613-bN; assay: two-hybrid library CCNG1
T11 chain: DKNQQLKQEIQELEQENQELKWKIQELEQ

4H3628-bN = molecular target: T12, 4H3628-bN; assay: two-hybrid library CCNG1
T12 chain: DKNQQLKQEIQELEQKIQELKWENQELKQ

4H3817-bN = molecular target: T13, 4H3817-bN; assay: two-hybrid library CCNG1
T13 chain: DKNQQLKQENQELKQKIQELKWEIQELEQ

4H3858-bN = molecular target: T14, 4H3858-bN; assay: two-hybrid library CCNG1
T14 chain: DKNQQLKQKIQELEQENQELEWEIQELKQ

4H3926-bN = molecular target: T15, 4H3926-bN; assay: two-hybrid library CCNG1
T15 chain: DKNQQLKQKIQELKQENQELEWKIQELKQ

4H3974-bN = molecular target: T16, 4H3974-bN; assay: two-hybrid library CCNG1
T16 chain: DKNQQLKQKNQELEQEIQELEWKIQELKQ

4H570-bN = molecular target: T17, 4H570-bN; assay: two-hybrid library CCNG1
T17 chain: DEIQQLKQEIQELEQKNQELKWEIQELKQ

4H591-bN = molecular target: T18, 4H591-bN; assay: two-hybrid library CCNG1
T18 chain: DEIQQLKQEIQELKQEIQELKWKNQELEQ

4H626-bN = molecular target: T19, 4H626-bN; assay: two-hybrid library CCNG1
T19 chain: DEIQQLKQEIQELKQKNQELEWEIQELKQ

4H850-bN = molecular target: T20, 4H850-bN; assay: two-hybrid library CCNG1
T20 chain: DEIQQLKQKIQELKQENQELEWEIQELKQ

4H906-bN = molecular target: T21, 4H906-bN; assay: two-hybrid library CCNG1
T21 chain: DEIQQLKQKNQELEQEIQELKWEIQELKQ

4H918-bN = molecular target: T22, 4H918-bN; assay: two-hybrid library CCNG1
T22 chain: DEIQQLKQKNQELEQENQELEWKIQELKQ

4H1391-AA = molecular target: T23, 4H1391-AA; assay: two-hybrid library CCmax
T23 chain: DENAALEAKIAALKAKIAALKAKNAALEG

4H146-AA = molecular target: T24, 4H146-AA; assay: two-hybrid library CCmax; details: mean of both orientations
T24 chain: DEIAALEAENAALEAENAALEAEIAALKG

4H1809-AA = molecular target: T25, 4H1809-AA; assay: two-hybrid library CCmax; details: mean of both orientations
T25 chain: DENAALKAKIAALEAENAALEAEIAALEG

4H1854-AA = molecular target: T26, 4H1854-AA; assay: two-hybrid library CCmax; details: mean of both orientations
T26 chain: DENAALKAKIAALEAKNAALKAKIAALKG

4H189-AA = molecular target: T27, 4H189-AA; assay: two-hybrid library CCmax; details: mean of both orientations
T27 chain: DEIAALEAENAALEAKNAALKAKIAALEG

4H2248-AA = molecular target: T28, 4H2248-AA; assay: two-hybrid library CCmax; details: mean of both orientations
T28 chain: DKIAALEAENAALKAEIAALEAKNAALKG

4H2283-AA = molecular target: T29, 4H2283-AA; assay: two-hybrid library CCmax; details: mean of both orientations
T29 chain: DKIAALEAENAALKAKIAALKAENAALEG

4H2713-AA = molecular target: T30, 4H2713-AA; assay: two-hybrid library CCmax; details: mean of both orientations
T30 chain: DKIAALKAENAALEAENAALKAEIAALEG

4H2742-AA = molecular target: T31, 4H2742-AA; assay: two-hybrid library CCmax
T31 chain: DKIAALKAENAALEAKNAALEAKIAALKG

4H2948-AA = molecular target: T32, 4H2948-AA; assay: two-hybrid library CCmax; details: mean of both orientations
T32 chain: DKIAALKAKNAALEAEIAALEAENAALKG

4H2991-AA = molecular target: T33, 4H2991-AA; assay: two-hybrid library CCmax; details: mean of both orientations
T33 chain: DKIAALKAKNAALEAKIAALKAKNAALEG

4H3029-AA = molecular target: T34, 4H3029-AA; assay: two-hybrid library CCmax; details: mean of both orientations
T34 chain: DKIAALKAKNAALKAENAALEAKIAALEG

4H3066-AA = molecular target: T35, 4H3066-AA; assay: two-hybrid library CCmax; details: mean of both orientations
T35 chain: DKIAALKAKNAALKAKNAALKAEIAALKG

4H3102-AA = molecular target: T36, 4H3102-AA; assay: two-hybrid library CCmax; details: mean of both orientations
T36 chain: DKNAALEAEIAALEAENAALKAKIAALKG

4H3121-AA = molecular target: T37, 4H3121-AA; assay: two-hybrid library CCmax; details: mean of both orientations
T37 chain: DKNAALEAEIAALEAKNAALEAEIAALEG

4H3417-AA = molecular target: T38, 4H3417-AA; assay: two-hybrid library CCmax; details: mean of both orientations
T38 chain: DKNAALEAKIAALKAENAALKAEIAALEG

4H3446-AA = molecular target: T39, 4H3446-AA; assay: two-hybrid library CCmax; details: mean of both orientations
T39 chain: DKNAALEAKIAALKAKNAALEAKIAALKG

4H3591-AA = molecular target: T40, 4H3591-AA; assay: two-hybrid library CCmax; details: mean of both orientations
T40 chain: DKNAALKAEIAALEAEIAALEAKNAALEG

4H3628-AA = molecular target: T41, 4H3628-AA; assay: two-hybrid library CCmax; details: mean of both orientations
T41 chain: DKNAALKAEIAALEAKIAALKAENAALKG

4H3666-AA = molecular target: T42, 4H3666-AA; assay: two-hybrid library CCmax; details: mean of both orientations
T42 chain: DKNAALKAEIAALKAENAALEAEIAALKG

4H3709-AA = molecular target: T43, 4H3709-AA; assay: two-hybrid library CCmax; details: mean of both orientations
T43 chain: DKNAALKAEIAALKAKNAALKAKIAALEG

4H391-AA = molecular target: T44, 4H391-AA; assay: two-hybrid library CCmax; details: mean of both orientations
T44 chain: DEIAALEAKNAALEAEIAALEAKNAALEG

4H3920-AA = molecular target: T45, 4H3920-AA; assay: two-hybrid library CCmax; details: mean of both orientations
T45 chain: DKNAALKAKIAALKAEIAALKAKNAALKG

4H3939-AA = molecular target: T46, 4H3939-AA; assay: two-hybrid library CCmax; details: mean of both orientations
T46 chain: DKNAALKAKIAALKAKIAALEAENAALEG

4H428-AA = molecular target: T47, 4H428-AA; assay: two-hybrid library CCmax; details: mean of both orientations
T47 chain: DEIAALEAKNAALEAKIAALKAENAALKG

4H478-AA = molecular target: T48, 4H478-AA; assay: two-hybrid library CCmax; details: mean of both orientations
T48 chain: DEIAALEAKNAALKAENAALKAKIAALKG

4H497-AA = molecular target: T49, 4H497-AA; assay: two-hybrid library CCmax; details: mean of both orientations
T49 chain: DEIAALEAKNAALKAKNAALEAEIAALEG

4H656-AA = molecular target: T50, 4H656-AA; assay: two-hybrid library CCmax; details: mean of both orientations
T50 chain: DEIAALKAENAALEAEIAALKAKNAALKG

4H675-AA = molecular target: T51, 4H675-AA; assay: two-hybrid library CCmax; details: mean of both orientations
T51 chain: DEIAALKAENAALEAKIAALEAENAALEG

4H971-AA = molecular target: T52, 4H971-AA; assay: two-hybrid library CCmax; details: mean of both orientations
T52 chain: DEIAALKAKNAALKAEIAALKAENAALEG

interaction score (4H1544-bN): -2.02
interaction score (4H1710-bN): 1.41
interaction score (4H1899-bN): 1.82
interaction score (4H1985-bN): -0.277
interaction score (4H3162-bN): -1.96
interaction score (4H3175-bN): 0.167
interaction score (4H3277-bN): -0.11
interaction score (4H3298-bN): -0.192
interaction score (4H3462-bN): 1.08
interaction score (4H3497-bN): 0.211
interaction score (4H3613-bN): -1.07
interaction score (4H3628-bN): 0.019
interaction score (4H3817-bN): -0.351
interaction score (4H3858-bN): -0.293
interaction score (4H3926-bN): -0.652
interaction score (4H3974-bN): -0.0151
interaction score (4H570-bN): -0.108
interaction score (4H591-bN): -0.583
interaction score (4H626-bN): -1.03
interaction score (4H850-bN): 0.669
interaction score (4H906-bN): -0.343
interaction score (4H918-bN): -0.127
B1: 4H1544-bN (peptide)
chain: DENQQLKQEIQELEQEIQELEWKNQELKQ

interaction score (4H1391-AA): -0.77
interaction score (4H146-AA): -1.65
interaction score (4H1809-AA): -0.868
interaction score (4H1854-AA): -1.81
interaction score (4H189-AA): -1.54
interaction score (4H2248-AA): -1.32
interaction score (4H2283-AA): -1.61
interaction score (4H2713-AA): -1.47
interaction score (4H2742-AA): -1.48
interaction score (4H2948-AA): -1.19
interaction score (4H2991-AA): -2.12
interaction score (4H3029-AA): -1.41
interaction score (4H3066-AA): -1.99
interaction score (4H3102-AA): -1.1
interaction score (4H3121-AA): -1.32
interaction score (4H3417-AA): -1.93
interaction score (4H3446-AA): -1.64
interaction score (4H3591-AA): 2.15
interaction score (4H3628-AA): 0.211
interaction score (4H3666-AA): -1.8
interaction score (4H3709-AA): -1.44
interaction score (4H391-AA): -1.36
interaction score (4H3920-AA): -0.296
interaction score (4H3939-AA): -1.09
interaction score (4H428-AA): -1.77
interaction score (4H478-AA): -1.53
interaction score (4H497-AA): -1.59
interaction score (4H656-AA): -1.09
interaction score (4H675-AA): -1.62
interaction score (4H971-AA): -1.37
B2: 4H1391-AA (peptide)
chain: DENAALEAKIAALKAKIAALKAKNAALEG
